Columns and labels:
pancreatic β-cells [1] = assay: Surface ratio of β-cells to α-cells in STZ mice administered synthetic polypeptides A-C; type: in vivo, C57BL/6 mouse; details: STZ mouse, 25 nmol/kg body weight i.p. twice daily for eight weeks; vs saline; FIG. 8
Description: In the sixth embodiment, the action of synthetic polypeptides A-C on Type-1 diabetes STZ model mice was confirmed in the same manner as the third embodiment.
Firstly a 7-week old C57BL/6 mouse (body weight approximately 18-20 g) was fasted for 18 hours from day 0 and then streptozocin dissolved in saline (100 mg/kg body weight) was administered into the interperitoneal region and free feeding was immediately allowed. […] The serum blood-glucose level was measured on the seventh day. A fasting blood glucose level of greater than or equal to 150 mg/dL was determined as diabetes and the experiment described hereafter was conducted. STZ mice determined to have diabetes were administered into the interperitoneal region twice daily the polypeptide A-C (25 nmol/kg body weight) dissolved in saline for eight weeks from the seventh day.
The pancreas of the STZ mice was removed and after fixing the tissue with paraformaldehyde, the tissue sample preparation office at University of Tsukuba was employed to prepare a paraffin-embedded section. […] The section was thereafter mounted on a fluorescence photobleaching prevention agent (VECTASHILD Mounting Medium; Vector) and observed through a fluorescence microscope (BZ-8000; KEYENCE) to measure the surface ratio (β-cells/α-cells) of β-cells to α-cells. […]

pancreatic β-cells [2] = assay: Surface area and number of β-cells (islets of Langerhans) in mCF266 transgenic mice; type: in vivo, mouse
Description: Firstly, an mCF266 expression vector (pCAGGS-mCF266) was constructed by linking mCF266 to a CAG promoter and linearized. The University of Tsukuba Laboratory Animal Resource Center was employed to produce a transgenic mouse. The introduced gene was confirmed using PCR and southern blotting and mating for five generations with C57BL/6 mice was conducted.
The pancreas of the transgenic mice was removed and after fixing the tissue with paraformaldehyde, the tissue sample preparation office at University of Tsukuba was employed to prepare a paraffin-embedded section. After the section was removed from paraffin, antigen activation was performed for 30 minutes at room temperature using 0.1% Triton X-100 and then blocking was performed for one hour at room temperature using 5% skim milk. After blocking, a primary antibody reaction was performed overnight at 4° C. using polyclonal anti-insulin guinea pig antibody (Daco) and polyclonal anti-glucagon rabbit antibody (Daco). The section was washed using Tris-buffered saline containing 0.1% Tween20 (TBST). […] The section was thereafter mounted on a fluorescence photobleaching prevention agent (VECTASHILD Mounting Medium; Vector) and observed through a fluorescence microscope (BZ-8000; KEYENCE) to measure the surface area of islets of Langerhans stained by insulin relative to the pancreas surface area on the section. […]

[3] = tested on: type-2 diabetes model KK/Ay mouse; assay: Intravenous glucose tolerance test after adenoviral expression of mCF266 in KK/Ay mouse; type: in vivo; details: adenoviral vector i.v. 6×10^9 PFU/mL, after four days, vs Ad GFP
From the text: In the second embodiment, an adenoviral vector expressing mCF266 was used to confirm the action of mCF266 with respect to a KK/Ay mouse which is a type-2 diabetes model mouse.
Firstly an adenoviral vector (prepared using ViraPower which is a tradename of Invitrogen) constructed by linking mCF266 to a CAG promoter was intravenously injected at a concentration of 6×10^9 PFU/mL into the caudal vein of a 18-week old KK/Ay mouse (body weight approximately 47-51 g) given a high-fat high-sucrose diet. After four days, an intravenous glucose tolerance test (i.v. GTT) was performed by periodically taking blood and measuring the blood-glucose level of the serum and the insulin level.
Consequently expression of mCF266 is shown to induce insulin secretion.

pancreatic β-cells [4] = assay: Surface ratio of β-cells to α-cells in pancreas sections of STZ mice given hCF266(27V) adenovirus; type: in vivo, C57BL/6 mouse; details: STZ mouse, adenoviral expression; vs Ad GFP or Ad (−); FIG. 6
Description: (§1) Firstly a 7-week old C57BL/6 mouse (body weight approximately 18-20 g) was fasted for 18 hours from day 0 and then streptozocin dissolved in saline (100 mg/kg body weight) was administered into the interperitoneal region and free feeding was immediately allowed. From the following day, after fasted for 18 hours the same amount of streptozocin was re-administered on the second day into the interperitoneal region and free feeding was immediately allowed. The serum blood-glucose level was measured on the seventh day. A fasting blood glucose level of greater than or equal to 150 mg/dL was determined to be diabetes and the experiment described hereafter was conducted. On the same day, a recombinant adenovirus (prepared using ViraPower which is a tradename of Invitrogen) constructed by linking hCF266(27V) to a CAG promoter was intravenously injected at a concentration of 1×10^9 PFU/mL into the caudal vein of a STZ mouse determined to be suffering diabetes. On the twelfth day, an oral glucose tolerance test (OGTT) was performed by periodically taking blood and measuring the blood-glucose level of the serum and the insulin level.
The pancreas of the STZ mice was removed and after fixing the tissue with paraformaldehyde, the tissue sample preparation office at University of Tsukuba was employed to prepare a paraffin-embedded section. […]

MIN6 cells = assay: Glucose-stimulated insulin secretion (GSIS) in MIN6 cells stimulated with culture supernatant of CF266-transfected HEK293T cells; type: cell-based, murine; details: culture supernatant of transfected HEK293T cells : KRBH buffer 1:1 (v/v), stimulated one hour, vs Mock, FIG. 2
Description: In Embodiment 1, an action was confirmed with respect to MIN6 cells using a culture supernatant of a HEK293T cell strain originating from fetal kidney epithelial cells transfected with CF266.
Firstly, HEK293T cells subcultured in DMEM media enriched with 5% FCS and an antibiotic (penicillin 100 U/mL, streptomycin […]) were plated onto a 10 cm dish at a concentration of 1×10^6 cells/dish. On the following day, HEK292T cells were transfected with an expression vector for mCF266 (pCAGGS-mCF266) using a FuGENE6 (Roche) and mCF266 was forcibly expressed. After 24 hours, the media was exchanged for Opti-MEM media and after a further 24 hours, a culture supernatant was recovered.
Next, MIN6 cells subcultured in DMEM media (high glucose, Invitrogen) enriched with 15% FCS, an antibiotic (penicillin 100 U/mL, streptomycin […]) and 2-mercaptoethanol were plated onto a 24-well plate at a concentration of 3×10^5 cells/well. On the following day, 0.5 mL/well KRBH buffer solution (2.8 mM glucose) was added and pre-culturing was conducted for 30 minutes. Then 0.5 mL/well of a mixed solution of the above culture supernatant and KRBH buffer solution (1:1(v/v)) was added and stimulated for one hour. Then glucose-stimulated insulin secretion (GSIS) was measured for the MIN6 cells. […]

[5] = tested on: type-1 diabetes STZ model mouse; assay: Oral glucose tolerance test after adenoviral expression of hCF266(27V) in STZ model mouse; type: in vivo, C57BL/6 mouse; details: adenovirus i.v. 1×10^9 PFU/mL on day 7, OGTT on twelfth day, vs Ad GFP or Ad (−), FIG. 5
Description: In the fourth embodiment, an adenoviral vector expressing hCF266(27V) was used to confirm the action of hCF266(27V) with respect to an STZ model mouse which is a type-1 diabetes model mouse.
as §1, with “level. […]” for “level.”

For “ALYCMLISIQALLKGPLMC (Human) [polypeptide A, 19 amino acid fragment, 98-116th amino acids of the hCF266(27V) polypeptide]”, the “surface ratio (β-cells/α-cells) β-cells to α-cells” value (pancreatic β-cells [1]) was “excellent”.

B1: mCF266: Murine DNA SEQ. ID. No. 1 encoding membrane protein Tm4sf20; tested as transfected-cell supernatant, adenoviral vector and transgene (protein)
chain: MTCCEGWTSCNGFSLLILILLGVVINCIPLGISLVEADSTSQNPISCYEWWFPGIIGAGLMAIPATTMSLAARKRACCNNKTGMFLSSLFSVITVVGAVYCMLVSLQALLEGPLICNTQANSTVTCEFSLKNLSKFDPESFNLLWFFNGTCVSPTDFKNPTINNMVSNWKIPNSNSEEDRHRIFHFSVFMSLLLVGILELLFGLSQILIGFLGCLCGVSQRRSQIV
modifications: Mouse
notes: ID; No. 1 encoding membrane protein Tm4sf20; tested as transfected-cell supernatant, adenoviral vector and transgene
B1 was tested, and the “number of β-cells” value (pancreatic β-cells [2]; transgenic mice hetero (+/−) or homo (+/+) vs wild-type (normalized to 1), FIG. 7B) was “conspicuously increased”, the “surface area of β-cells” value (pancreatic β-cells [2]; transgenic mice hetero (+/−) or homo (+/+) vs wild-type, FIG. 7A) was “conspicuously increased” and the “blood-glucose level (i.v. GTT)” value ([3]; FIG. 3A) was “only a slightly low tendency”. For the same molecule, the “insulin value (i.v. GTT)” value ([3]; FIG. 3B) was “significantly higher”.

B2: hCF266(27V): Human DNA SEQ. ID. No. 4 encoding TM4SF20, 27th amino acid valine; tested as transfected-cell supernatant and adenoviral vector (protein)
chain: MTCCEGWTSCNGFSLLVLLLLGVVLNVIPLIVSLVEEDQFSQNPISCFEWWFPGIIGAGLMAIPATTMSLTARKRACCNNRTGMFLSSLFSVITVIGALYCMLISIQALLKGPLMCNSPSNSNANCEFSLKNISDIHPESFNLQWFFNDSCAPPTGFNKPTSNDTMASGWRASSFHFDSEENKHRLIHFSVFLGLLLVGILEVLFGLSQIVIGFLGCLCGVSKRRSQIV
modifications: Human
notes: ID; No. 4 encoding TM4SF20, 27th amino acid valine; tested as transfected-cell supernatant and adenoviral vector
B2 was tested, and the “surface ratio (β-cells/α-cells) of β cells to α cells” value (pancreatic β-cells [4]) was “significantly increased”, the “glucose-stimulated insulin secretion (GSIS)” value (MIN6 cells) was “excellent action” and the “blood glucose level (OGTT)” value [5] was “significantly reduced”.
